Measured values from FireProtDB (doi:10.1002/prot.1147).
“And” between values parts separate entries of the source, which are not always exact repeats. Identical values can stand only once.

B1: Lysozyme C, P61626 (parent)
chain: MKALIVLGLVLLSVTVQGKVFERCELARTLKRLGMDGYRGISLANWMCLAKWESGYNTRATNYNAGDRSTDYGIFQINSRYWCNDGKTPGAVNACHLSCSALLQDNIADAVACAKRVVRDPQGIRAWVAWRNRCQNRDVRQYVQGCGV

Variants of: B1
Conditions: Homo sapiens, Thermal, DSC, Gly-HCl 0.05 M, reversible: yes, structure 1LZ1, whole UniProt chain shown

For G34A, the “ddG of mutation (higher = less stable)” value (pH 2.7, 64.9 °C) was 1.39 kcal/mol, the “heat capacity change of unfolding” value (pH 2.7, 64.9 °C) was 1.58 kcal/mol/K and the Tm (pH 2.7) was 60.3 °C. For the same variant, the “change of melting temperature, mutant - wild type (higher = more stable)” value (“change of melting temperature, mutant” below) (pH 2.7) was -4.6 °C and the “unfolding enthalpy (calorimetric)” value (pH 2.7) was 96.3 kcal/mol and 103 kcal/mol.

With G37A the “ddG of mutation (higher = less stable)” value (pH 2.7, 64.9 °C) was 1.77 kcal/mol, the “heat capacity change of unfolding” value (pH 2.7, 64.9 °C) was 1.58 kcal/mol/K and the Tm (pH 2.7) was 59.4 °C. For the same variant, the “change of melting temperature, mutant” value (pH 2.7) was -5.5 °C and the “unfolding enthalpy (calorimetric)” value (pH 2.7) was 102 kcal/mol and 111 kcal/mol.

In the case of G86A, the Tm (pH 2.6) is reported as 62.8 °C, the “unfolding enthalpy (calorimetric)” value (pH 2.6) is reported as 103 kcal/mol and the “ddG of mutation (higher = less stable)” value (pH 2.7, 64.9 °C) is reported as 0.12 kcal/mol. For the same variant, the “heat capacity change of unfolding” value (pH 2.7, 64.9 °C) was 1.65 kcal/mol/K, the Tm (pH 2.7) was 64.5 °C and the “change of melting temperature, mutant” value (pH 2.7) was -0.4 °C. The “heat capacity change of unfolding” value (pH 2.7) was 1.65 kcal/mol/K, the “unfolding enthalpy (calorimetric)” value (pH 2.7) was 108 kcal/mol and the Tm (pH 2.72) was 64.9 °C. For the same variant, the “unfolding enthalpy (calorimetric)” value (pH 2.72) was 109 kcal/mol, the Tm (pH 3) was 69.2 °C and the “unfolding enthalpy (calorimetric)” value (pH 3) was 114 kcal/mol.

With G147A the Tm (pH 2.67) was 64.9 °C, the “unfolding enthalpy (calorimetric)” value (pH 2.67) was 99.7 kcal/mol and the “ddG of mutation (higher = less stable)” value (pH 2.7, 64.9 °C) was -0.14 kcal/mol. For the same variant, the “heat capacity change of unfolding” value (pH 2.7, 64.9 °C) was 1.29 kcal/mol/K, the Tm (pH 2.7) was 65.4 °C and the “change of melting temperature, mutant” value (pH 2.7) was 0.5 °C. The “heat capacity change of unfolding” value (pH 2.7) was 1.29 kcal/mol/K, the “unfolding enthalpy (calorimetric)” value (pH 2.7) was 99.7 kcal/mol and the Tm (pH 2.79) was 67.1 °C. The “unfolding enthalpy (calorimetric)” value (pH 2.79) was 102 kcal/mol, the Tm (pH 2.8) was 67.2 °C and the “unfolding enthalpy (calorimetric)” value (pH 2.8) was 103 kcal/mol.

With G40A the Tm (pH 2.7) was 57.7 °C, the “change of melting temperature, mutant” value (pH 2.7) was -7.2 °C and the “unfolding enthalpy (calorimetric)” value (pH 2.7) was 77 kcal/mol and 88.4 kcal/mol.
